± gives the uncertainty stated by the source.
Assay: amyloid nucleation score (Sup35N fusion, yeast selection) (log enrichment); library NNK3; higher = more nucleation; inactive = no reads after selection
Procedure, shortened: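 Peptides of 20 random codons, each fused to Sup35N, were expressed in psi-negative yeast. Cells were induced with 100 μM copper sulfate for 24 hours and grown 7 days at 30°C on medium lacking adenine and uracil, and plasmid inserts before and after selection were Illumina-sequenced. Nucleation scores are DiMSum log enrichments of output over input reads, centred on the mode score of non-aggregating sequences, and sequences under 100 input reads were excluded.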

Substance	amyloid nucleation score
LSLNMVTDGIDDNGGNG	inactive
NDKVGRAL	inactive
SQSNGFGFFYMMSLVSWVDV	inactive
ERFLIPSDLNYKYA	inactive
LNSKSSLVPNMLWDMREHAI	1.04 ± 0.12
GIKKTREPNCLVCIDIWIFI	1.33 ± 0.07
SKTFNDPFLLNHLNTFIKPR	-0.259 ± 0.93
ECHRGDHINDYVRADNRFSL	inactive
NCDILVLCLSCIADGRQSYE	2.96 ± 0.078
NNVFERQFRHLNSVDGPIDN	inactive
CMSPYWML	inactive
MYDGKNWQLAQ	inactive
SLHVSTAFVFDIVLSNYLPV	inactive
NQWLCLHLCQR	inactive
EFLESMNFVVTFLRWIQWTN	inactive
ALSDDTDTQAANQLHGCTGW	inactive
TIASVKLEFALPPSHLPLGV	inactive
CTLVLLKQ	inactive
DIWYKVLYMPVLTV	inactive
CFLVNQ	inactive
LFFYYMNSDLVR	inactive
GSLIMSLAR	inactive
AFNHCETDRLTCL	inactive

Substance	amyloid nucleation score
CINNLYGRNVGSYGECEPFA	inactive
LIFTTTRSLFTALPGFEYKD	inactive
HAWTQPNHI	inactive
GSWLNSYVELTCVFFGSFYM	inactive
WHMWVLKYIFAGLVHSSPWG	inactive
WRYWDSFFL	inactive
RCIMRYCAKALCKVICSQWL	inactive
ILWLLILTFLNRRARCIEQN	-0.567 ± 0.51
YVGLDVVPGVLGIGFILLYD	inactive
QSNCCWVV	inactive
FRFFFRKSQFYNRSLDNLVR	inactive
DLCAEFWIYWHVTMPVYLEM	inactive
YVCLYEDLTYIA	inactive
TFIFVLVSC	inactive
NWIYYTMWSL	0.581 ± 0.17
TYRLAVLS	inactive
KYLGMMVKNANMLALCYAGW	-0.279 ± 0.68
VYNLVDIESEPKVVFNGLFL	inactive
TMVTTNEIT	0.092 ± 0.29
KLSWTPRLLNSYSLLEYVQD	inactive
VNFVSFRP	inactive
ENTTMVGHMGYSLMFSYK	1.25 ± 0.12
SPFLCLLLDNEGKVLKVSYK	inactive

Substance	amyloid nucleation score
LPFCLN	inactive
SFVMGSAANL	inactive
VERKNVLFRYHAVGFVLGDV	inactive
VVLCLFFLLDIFSTGKVYIK	inactive
VFPFSSFFKFLQRSWCGRDE	1.22 ± 0.12
SCDNYVVLTHEFVLSHSKSL	1.01 ± 0.14
MYSPVFRI	inactive
KGHDAHVAVRVFTGGGLV	inactive
VWVLGQLWFF	inactive
FWRSGNFYVNTVVLCASSRE	2.03 ± 0.099
ILLRQKHVHNY	inactive
YSGLDSCVD	inactive
CDWFILKA	inactive
VVTVARERYIVF	inactive
LAKCVSVHSIYIHDSICPVG	inactive
LSGACVHSAAGSALATQYAR	inactive
DGYKMCRDGIGWIGT	inactive
VLEMMWVD	0.144 ± 0.64
LFVASLTTCIFWA	2.4 ± 0.054
TMSGFYYNSFIRYNLAL	inactive
DFRSSRLHSIITTQFIYFYD	inactive
MWFPSVLWTIISQSYEMQKL	0.783 ± 0.12
MALWASSKAEVIVVIKCLGD	inactive

Substance	amyloid nucleation score
LREVLCCVSTDSYVFILLRG	1.01 ± 0.14
SAASYLTHDVN	inactive
QPCDHWHEDLNVCVVVIYAG	inactive
LGGKDSASILIVPWTILSGL	inactive
SLFGVNGMSAPGRRDV	0.589 ± 0.31
FMHSLTGNSGWGKGYRKSHV	1.04 ± 0.19
TESPNYLYRI	inactive
NRTDHTLNCVEIFAWIWFNL	inactive
ISCYLSDPVYS	-0.493 ± 1
VPGELGALGQACLKEDFSKG	inactive
LVSVGSIVTSLEFNTGCLWA	inactive
IVEDVGYLHLYRIQFGGVSE	inactive
RSVVVIYKRCGLYLKS	inactive
QNMFSSANRLMSTC	inactive
TRNYFNPVSRRGVTVSRGLY	inactive
VGKFRLMIHVTSHYGFCDLF	inactive
DFHYFKRVRNQGWNQKRKRY	inactive
TAESKRH	inactive
VYNRVHNCGMKVANYDTRDK	inactive
RIRVSNVCSHQFWLIYGNDT	2.15 ± 0.057
LRVQHFDTFNPANGSTPKVG	inactive
WMFLDTSGDIMPRGLTDYLE	inactive
TVHTNLCAMLMFTGYF	inactive

Substance	amyloid nucleation score
RYKTMRRVTFKHSLNKKWVK	inactive
STITYHLDIEVRKCWVFYMY	inactive
RQERCGSALPCCCKMIDRRA	inactive
RKGLL	inactive
VIRIGDPILTV	inactive
LMILLGSKFRNANGTTSMLK	inactive
TNMHYMSHYLETTPFTTGMV	inactive
WTVGCREWLSLCCSAKDTDA	inactive
INPYVL	inactive
MNGDSAMWFSISS	inactive
RSNNGSSERGGDIEDLSPNK	inactive
LKDYYFVLGHALYVLRNPMS	1.08 ± 0.13
CRCKC	inactive
LPTCYSF	inactive
LFTLWVMRFEFWYSCFFVSV	inactive
IKQDVASSVFM	inactive
TRGLWYQHVDHSTFRLKEST	inactive
NFFRDSGRMCHPKGIGDRWT	inactive
VRARFHDGQF	-1.05 ± 2.4
TVRWDVSLMFMRPMMYGEPK	-0.13 ± 1.1
LNVSRGWLVNILPYGCNI	inactive
FFPKWFCMTLLINDVGNHDM	0.921 ± 0.25
SSVDSSFANCCVISKRNHML	inactive

Substance	amyloid nucleation score
FCSPSFYFGADGDTT	1.99 ± 0.058
SRRFYLYYFCWYSVVMFIHG	inactive
GCFSV	inactive
YPHREQVRRSL	inactive
SSAIYVMRLPQCMAECSRPR	inactive
IVNFACCVWSLYSSREFNML	3.22 ± 0.07
DEPAFQDFVLYTSSSSCWRY	inactive
GFNYVFDSGEFGDRSFWHIY	inactive
CNLYPCPYSKITDTAMLLGC	inactive
KNLKSVSFGRRYAFNSFVFL	1.25 ± 0.11
VLMQSS	-0.36 ± 1.2
RYTGLMTKLASYYNKISICN	inactive
TRKDDFDLSGCSR	inactive
FVTKRCFDMLF	inactive
QLMDLTGFRRSSVYVLVCDF	inactive
PLHSWKQCALRRVSSNTSSG	1.75 ± 0.093
KRYMIPKIYERNENYSFEQI	inactive
ALNIPVTRGTTPAWFLILLD	inactive
NSVGFACKEFMHVTAQTHKM	inactive
INQRVYESWLAFV	inactive
GATVLLSNFSVCPHMARSSG	inactive
MSCRARRTNLF	inactive
RIYKNRSSSGILLNERFPGL	-0.46 ± 1.3

Substance	amyloid nucleation score
IRPSHYIYLRTN	inactive
ITYKGLIWMSQGHVACRSRM	-0.008 ± 0.7
GKSIYCWFWVKMQEAERLMS	inactive
LSYFSLLGFRYSRGVMGYQM	inactive
STQNGYRQNEFSRSRMMAPD	inactive
RRMLIGFHVFSYYWDNEYTR	0.611 ± 0.14
TCSRLVDQFNTFGTVY	inactive
STSRGNRFACPCFDYCWFRE	-0.598 ± 1.1
HIILFSIKSSKD	1.37 ± 0.12
GNGVTPWPAEENSSRSPMPY	inactive
WSISSECGERVFRVRTCH	-0.548 ± 1
AKWLEEKLMPAIDVVPGQWL	inactive
VMYWLYRINDSSQSFFSYFS	inactive
GEHSGRYYSNVSKNESMGVI	inactive
CRHRYLDCCFGNWHP	inactive
GVSDVVFWSIGYHGRRISQS	inactive
TRCGFS	inactive
KRFHMYVHGSDMEVLLAGKC	inactive
HKNVCRIQRR	inactive
DDTRYHAHTSNLGRITHRIQ	inactive
MLSFLYRELN	inactive
FIWAREFSVLRSHRRWPTEN	inactive

From the supplement of paper PMC12042874
